According to US10865391B2, “Glutamate dehydrogenase mutants and their application in preparation of L-phosphinothricin” (ZHEJIANG UNIVERSITY, priority 2018, dated 2020):
Residue numbers refer to the chain shown, from its start. Names and notes keep the numbering of the source.

Legend:
Assay type in all cases: biochemical
[1] = Standard enzyme activity measurement toward PPO, crude enzyme (per volume fermentation broth); details: toward PPO; for Enzyme activity of mutants (U/mL) / Enzyme activity (per volume fermentation broth): crude enzyme; for Enzyme activity of mutants (U/mL): standard system, N.D. = no detectable activity; for Enzyme activity (per volume fermentation broth): 100 mM substrate, 10 mM coenzyme, 500 mM NH4+, pH 7.5, 35° C., 10 min; for Enzyme activity (per volume fermentation broth), times higher than that of wild type: versus wild type PpGluDH
Procedure: The preserved recombinant E. coli is streaked onto the plate for activation. Single colonies are picked and inoculated into 5 mL LB liquid medium containing 50 μg/mL kanamycin and cultured at 37° C. for 12 h. The culture is transferred to 50 mL fresh LB liquid medium containing 50 μg/mL kanamycin at a 2% inoculum, and then incubated at 37° C. until the OD600 reaches 0.6; after that, add IPTG to a final concentration of 0.5 mM, and then proceed with induction culture under the temperature of 18° C. for 16 h.
After the cultivation, the culture is centrifuged at 10000 rpm for 10 min; discard supernatant, and collect cells. The harvested cells are washed for 2 times using pH 7.5 50 mM phosphate buffer. After that, the cells are re-suspend into the pH 7.5 phosphate buffer and disrupted ultrasonically (400W for 30 times, Ultrasonic time is 3 s, and the interval is 7 s). The cell disrupted solution is centrifuged at 12000 g for 5 min at 4° C. to remove the precipitate, and the supernatant obtained is the crude enzyme containing recombinant glutamate dehydrogenase
(§1) The standard enzyme activity measurement system: Appropriate amount of enzyme, 100 mM substrate, 10 mM coenzyme (NADH or NADPH), 500 mM NH4^+ ((NH4)2SO4); total system volume is up to 400 μL; reaction medium is pH 7.5 phosphate buffer. 35° C. reaction for 10 min; after that, add 40 uL 5 M NaOH to terminate reaction.
(§2) Definition of enzyme activity unit: The quantity of enzyme as required by generation of 1 μmol L-phosphinothricin per minute under standard reaction conditions.
Proceed with induction culture of constructed mutants, and prepare crude enzyme solution.

[2] = Preparation of L-phosphinothricin by coupling glutamate dehydrogenase with glucose dehydrogenase; details: 500 mM PPO
Procedure: The reaction process is monitored by measuring the concentration of substrate in the reaction solution applying high-performance liquid chromatography (HPLC). HPLC analysis method is stated as follows: column model: Pntulips® QS-C18, 5 μm, 4.6 mm×250 mm. Mobile phase: 50 mM (NH4)2HPO4, added 1% of 10% tetrabutyl ammonium hydroxide, adjusted to pH 3.6 with 50% phosphoric acid(mass fraction), added 8% acetonitrile. Detective wave length is 205 nm; flow rate is 1.0 mL/min. Column temperature is 40° C.
The enantiomeric excess and concentration of product are determined through pre-column derivatization high-performance liquid chromatography; the specific analysis method is stated as follows:
(1) HPLC condition: column model: Pntulips® QS-C18, 5 μm, 4.6 mm×250 mm. Mobile phase: 50 mM Sodium acetate: Acetonitrile=8: 0.5 (v/v). Detective wave length: 338 nm. Flow rate: 0.85 mL/min. Column temperature: 30° C.
(2) Derivatization reagent: Weigh 0.03 g phthalaldehyde and 0.1 g N-acetyl-L-cysteine, and use 400 uL ethanol for solubilization; after that, add 4 mL 0.2 mol/L borate buffer (pH 9.8) and shake for dissolution prior to storage in the fridge under the temperature of 4° C. (no more than 4 days).
(3) Derivatization reaction and analysis: Add 150 μL derivatization reagent into 100 μL sample, mix and incubate at 25° C. for 5 min, and then inject 20 μL for analysis.
Culture recombinant E. coli expressing glutamate dehydrogenase (PpGluDH) and glucose dehydrogenase (BsGDH-2M, SEQ ID NO. 21) with method in Step 3 of Embodiment 1; proceed with centrifugal collection of cells and ultrasonic cell disruption to prepare crude enzyme solution.
(§3) The final volume of the reaction is 30 mL; each sample contains 500 mM substrate PPO, 600 mM glucose, 250 mM (NH4)2SO4 and 0.5 mM NADP^+. Concentration of glutamate dehydrogenase cells (dry weight) is 1.0 g/L; concentration of glucose dehydrogenase cells (dry weight) is 1.25 g/L. Use water bath to control the reaction temperature at 35° C.; titrate ammonia to control pH at 7.5 during the reaction process. Use non-chiral HPLC to determine residual concentration of PPO after reaction for 6 h; meanwhile, use pre-column derivatization HPLC to determine the concentration and ee value of formed L-phosphinothricin.
as §3, with “0.5” for “1.0”
as §3, with “NAD^+.” for “NADP^+.”, “1.25” for “1.0”
The final volume of the reaction is 30 mL; each sample contains 500 mM substrate PPO, 600 mM glucose, 250 mM (NH4)2SO4 and 0.5 mM NAD^+. Concentration of glutamate dehydrogenase cells (dry weight) is 1.25 g/L; concentration of glucose dehydrogenase cells (dry weight) is 1.25 g/L. Use water bath to control the reaction temperature at 35° C.; titrate ammonia to control pH at 7.5 during the reaction process. […]

[3] = Specific activity of pure enzyme toward PPO; details: for Specific activity of pure enzyme: purified protein; for Specific activity, times higher than that of wild type: versus wild type PpGluDH
Procedure: The recombinant E. coli carrying glutamate dehydrogenase gene used in the present invention is constructed and kept by our laboratory. The vector used is pET-28a(+), and the host used is E. coli BL21(DE3). NI-NTA resin (HisPur™ Ni-NTA Resin) used for protein purification is purchased from Thermo Scientific™; protein purification is carried out in reference to specifications.
as §1, §2
Meanwhile, specific activity of pure enzyme obtained through purification has also been measured. As measured, specific activity of pure protein of wild type PpGluDH is 0.31 U/mg; specific activity of PpGluDH-A167G is 38.13 U/mg, which is 123 times higher than that of wild type; specific activity of PpGluDH-V378A is 35.96 U/mg, which is 116 times higher than that of wild type.

[4] = NAD+, GluDH cells 1.25 g/L, 50° C., pH 7.5, 6 h
[5] = NADP+, GluDH cells 1.0 g/L, 35° C., pH 7.5, 6 h
[6] = NAD+, GluDH cells 1.25 g/L, 35° C., pH 7.5, 6 h
[7] = NAD+, GluDH cells 1.25 g/L, 35° C., pH 7.5, 12 h

B1: BtGluDH-A155G: BtGluDH mutant A155G, SEQ ID NO. 19 (protein)
chain: MVTENTQGKEQKQESMNLLQSTQTVIKEALEKLGYQESMYELLKEPLRVLTVRIPVRMDNGEVKVFTGYRAQHNDAVGPTKGGIRFHPDVTEDEVKALSIWMSLKAGIVDLPYGGGKGGIICDPREMSFRELERLSRGYVRAVSQIVGPTKDIPGPDVFTNSQIMAWMMDEYSRIREFDSPGFITGKPIALGGSHGRETATAKGVTICIREAAKRRGIDLKGARVVVQGFGNAGSYLSKFMHDAGAKVVGISDAYGALYDPNGLDIDYLLDRRDSFGTVTKLFTNTITNKELLELDCDILVPAAIENQITAANAHNIKAKIVVEAANGPTTLEATKILTERGILLVPDVLASAGGVTVSYFEWVQNNQGYYWSEEEVQEKLEKVMVKAFENVYSLAQTRRVDMRLAAYMVGVRKMAEASRFRGWV
modifications: Brevibacillus thermoruber glutamate dehydrogenase mutant
Enzyme activity of mutants (U/mL) [1]: 0.50 U/mL
concentration of formed L-phosphinothricin [2, 4]: 80.3 g/L
residual PPO [2, 4]: 1.4 mM
substrate conversion [2, 4]: 99.7%

B2: PpGluDH-A167G: PpGluDH mutant, alanine 167 to glycine, SEQ ID NO. 1 (protein)
chain: MSTMIESVDNFLARLKQRDPGQPEFHQAVEEVLRTLWPFLEANPHYLQSGILERMVEPERAVLFRVSWVDDQGKVQVNRGYRIQMSSAIGPYKGGLRFHPSVNLSVLKFLAFEQVFKNSLTSLPMGGGKGGSDFDPKGKSDAEVMRFCQAFMSELYRHIGADCDVPGGDIGVGAREIGFMFGQYKRLANQFTSVLTGKGMTYGGSLIRPEATGYGCVYFAEEMLKRQDKRIDGRRVAVSGSGNVAQYAARKVMDLGGKVISLSDSEGTLYAEAGLTDAQWDALMELKNVKRGRISELAGQFGLEFRKGQTPWSLPCDIALPCATQNELGAEDARTLLRNGCICVAEGANMPTTLEAVDIFLDAGILYAPGKASNAGGVAVSGLEMSQNAMRLLWTAGEVDSKLHNIMQSIHHACVHYGEEADGRINYVKGANIAGFVKVADAMLAQGVV
modifications: Pseudomonas putida glutamate dehydrogenase mutant
Enzyme activity (per volume fermentation broth) [1]: 14.85 U/mL
Enzyme activity (per volume fermentation broth), times higher than that of wild type [1]: 135 times
Specific activity of pure enzyme [3]: 38.13 U/mg
Specific activity, times higher than that of wild type [3]: 123 times
concentration of formed L-phosphinothricin [2, 5]: 83.7 g/L
residual PPO [2, 5]: 0.9 mM
substrate conversion [2, 5]: 99.8%

B3: PpGluDH-V378A: PpGluDH mutant, valine 378 to alanine, SEQ ID NO. 2 (protein)
chain: B2 chain with G167A, V378A
modifications: Pseudomonas putida glutamate dehydrogenase mutant
Enzyme activity (per volume fermentation broth) [1]: 13.3 U/mL
Enzyme activity (per volume fermentation broth), times higher than that of wild type [1]: 121 times
Specific activity of pure enzyme [3]: 35.96 U/mg
Specific activity, times higher than that of wild type [3]: 116 times
concentration of formed L-phosphinothricin [2, 5]: 81.9 g/L
residual PPO [2, 5]: 1.2 mM
substrate conversion [2, 5]: 99.8%

B4: CsGluDH-A164G: CsGluDH mutant A164G, SEQ ID NO. 17 (protein)
chain: MSKYVDRVIAEVEKKYADEPEFVQTVEEVLSSLGPVVDAHPEYEEVALLERMVIPERVIEFRVPWEDDNGKVHVNTGYRVQFNGAIGPYKGGLRFAPSVNLSIMKFLGFEQAFKDSLTTLPMGGAKGGSDFDPNGKSDREVMRFCQAFMTELYRHIGPDIDVPGGDLGVGAREIGYMYGQYRKIVGGFYNGVLTGKARSFGGSLVRPEATGYGSVYYVEAVMKHENDTLVGKTVALAGFGNVAWGAAKKLAELGAKAVTLSGPDGYIYDPEGITTEEKINYMLEMRASGRNKVQDYADKFGVQFFPGEKPWGQKVDIIMPCATQNDVDLEQAKKIVANNIKYYIEVANMPTTNEALRFLMQQPNMVVAPSKAVNAGGVLVSGFEMSQNSERLSWTAEEVDSKLHQVMTDIHDGSAAAAERYGLGYNLVAGANIVGFQKIADAMMAQGIAW
modifications: Clostridium symbiosum glutamate dehydrogenase mutant
Enzyme activity of mutants (U/mL) [1]: 2.61 U/mL
concentration of formed L-phosphinothricin [2, 6]: 79.6 g/L
residual PPO [2, 6]: 0 mM
substrate conversion [2, 6]: 100%

B5: CsGluDH-V378A: CsGluDH mutant V378A, SEQ ID NO. 18 (protein)
chain: B4 chain with G164A, V378A
modifications: Clostridium symbiosum glutamate dehydrogenase mutant
Enzyme activity of mutants (U/mL) [1]: 1.76 U/mL
concentration of formed L-phosphinothricin [2, 7]: 78.5 g/L
residual PPO [2, 7]: 1.8 mM
substrate conversion [2, 7]: 99.6%
